Legend:
Experiment in all cases: two-hybrid; LexA-Cdc1 bait (pBTM116 or pBTM116BN) with Gal4-Pol3 prey and co-expressed c-myc-tagged Cdc27 (pAA-Cdc27) in S. cerevisiae CTY10-5d; ONPG liquid culture beta-galactosidase assay, mean of triplicates, as percent of wild-type Cdc1
Settings in all cases: partners not purified
[1] = biological target: T1, Cdc1-A8 (Schizosaccharomyces pombe, UniProt P87324 1-462, Pro374Ala)
T1 construct: Cdc1, S. pombe, point mutant; source: yeast two-hybrid fusion, in S. cerevisiae CTY10-5d
T1 sequence (looked up): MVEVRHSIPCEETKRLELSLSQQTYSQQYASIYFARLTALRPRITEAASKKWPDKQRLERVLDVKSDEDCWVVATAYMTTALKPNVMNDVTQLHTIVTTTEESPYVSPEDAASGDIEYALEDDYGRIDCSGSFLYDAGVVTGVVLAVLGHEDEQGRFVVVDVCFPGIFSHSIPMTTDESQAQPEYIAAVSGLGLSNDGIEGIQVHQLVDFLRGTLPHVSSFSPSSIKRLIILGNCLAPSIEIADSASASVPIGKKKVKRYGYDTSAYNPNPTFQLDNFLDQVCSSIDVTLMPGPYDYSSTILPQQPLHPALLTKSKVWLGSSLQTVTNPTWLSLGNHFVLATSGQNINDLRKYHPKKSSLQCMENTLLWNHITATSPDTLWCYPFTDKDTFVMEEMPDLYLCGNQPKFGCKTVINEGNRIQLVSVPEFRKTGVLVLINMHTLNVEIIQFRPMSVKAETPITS

[2] = biological target: T2, Cdc1-J2 (Schizosaccharomyces pombe, UniProt P87324 1-462, Tyr-ArgGlyThrProTyr-Ser)
T2 construct: Cdc1, S. pombe, with a pentapeptide inserted after residue 25; also called J18; J20; source: yeast two-hybrid fusion, in S. cerevisiae CTY10-5d
T2 sequence (looked up): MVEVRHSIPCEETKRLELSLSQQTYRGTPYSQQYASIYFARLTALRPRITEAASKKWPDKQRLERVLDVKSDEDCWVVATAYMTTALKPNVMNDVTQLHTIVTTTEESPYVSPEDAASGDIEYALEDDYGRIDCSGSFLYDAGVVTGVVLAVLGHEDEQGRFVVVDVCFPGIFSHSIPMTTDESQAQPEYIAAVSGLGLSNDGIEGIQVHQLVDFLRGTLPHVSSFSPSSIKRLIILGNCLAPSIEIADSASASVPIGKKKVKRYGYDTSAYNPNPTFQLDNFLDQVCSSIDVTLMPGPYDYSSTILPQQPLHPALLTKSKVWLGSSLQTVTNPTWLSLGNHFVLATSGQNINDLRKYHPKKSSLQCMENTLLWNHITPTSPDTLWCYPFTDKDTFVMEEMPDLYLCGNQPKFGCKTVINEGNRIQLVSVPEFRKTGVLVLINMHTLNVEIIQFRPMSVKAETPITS

[3] = biological target: T3, Cdc1-J3 (Schizosaccharomyces pombe, UniProt P87324 1-462, Leu-GlyValProLeuLeu-Asp)
T3 construct: Cdc1, S. pombe, with a pentapeptide inserted after residue 62; also called E3; E8; source: yeast two-hybrid fusion, in S. cerevisiae CTY10-5d
T3 sequence (looked up): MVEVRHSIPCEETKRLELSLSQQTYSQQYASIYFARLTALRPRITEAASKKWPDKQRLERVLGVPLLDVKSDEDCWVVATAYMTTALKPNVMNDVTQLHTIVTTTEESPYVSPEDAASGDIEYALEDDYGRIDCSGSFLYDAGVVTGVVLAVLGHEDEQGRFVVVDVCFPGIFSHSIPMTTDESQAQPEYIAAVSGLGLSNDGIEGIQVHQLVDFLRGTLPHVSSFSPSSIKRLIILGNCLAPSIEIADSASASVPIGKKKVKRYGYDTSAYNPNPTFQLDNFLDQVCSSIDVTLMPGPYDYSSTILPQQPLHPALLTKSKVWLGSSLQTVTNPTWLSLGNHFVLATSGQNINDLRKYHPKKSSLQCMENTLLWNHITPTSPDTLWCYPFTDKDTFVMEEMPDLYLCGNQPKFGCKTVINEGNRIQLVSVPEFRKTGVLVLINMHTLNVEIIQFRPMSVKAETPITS

[4] = biological target: T4, Cdc1-J21 (Schizosaccharomyces pombe, UniProt P87324 1-462, Leu-GlyValProGlnLeu-Asp)
T4 construct: Cdc1, S. pombe, with a pentapeptide inserted after residue 275; source: yeast two-hybrid fusion, in S. cerevisiae CTY10-5d
T4 sequence (looked up): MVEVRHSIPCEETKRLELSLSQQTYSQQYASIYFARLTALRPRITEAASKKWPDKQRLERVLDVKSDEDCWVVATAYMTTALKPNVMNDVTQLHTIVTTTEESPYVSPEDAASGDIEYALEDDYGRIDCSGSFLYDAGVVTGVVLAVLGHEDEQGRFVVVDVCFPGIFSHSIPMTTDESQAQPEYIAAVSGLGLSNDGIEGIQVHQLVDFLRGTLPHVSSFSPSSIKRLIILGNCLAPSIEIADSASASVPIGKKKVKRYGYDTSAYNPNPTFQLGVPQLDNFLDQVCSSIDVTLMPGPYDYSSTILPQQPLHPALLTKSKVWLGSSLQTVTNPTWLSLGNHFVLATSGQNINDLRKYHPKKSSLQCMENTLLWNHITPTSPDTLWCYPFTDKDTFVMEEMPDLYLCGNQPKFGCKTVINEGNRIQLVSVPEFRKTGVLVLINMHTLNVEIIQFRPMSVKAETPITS

B1: Pol3 (fission yeast DNA polymerase delta catalytic subunit) (natural protein, Schizosaccharomyces pombe, UniProt P30316 1-1086, looked up)
chain: MTDRSSNEGVVLNKENYPFPRRNGSIHGEITDVKRRRLSERNGYGDKKGSSSKEKTSSFEDELAEYASQLDQDEIKSSKDQQWQRPALPAINPEKDDIYFQQIDSEEFTEGSVPSIRLFGVTDNGNSILVHVVGFLPYFYVKAPVGFRPEMLERFTQDLDATCNGGVIDHCIIEMKENLYGFQGNEKSPFIKIFTTNPRILSRARNVFERGEFNFEELFPVGVGVTTFESNTQYLLRFMIDCDVVGMNWIHLPASKYQFRYQNRVSNCQIEAWINYKDLISLPAEGQWSKMAPLRIMSFDIECAGRKGVFPDPSIDPVIQIASIVTQYGDSTPFVRNVFCVDTCSQIVGTQVYEFQNQAEMLSSWSKFVRDVDPDVLIGYNICNFDIPYLLDRAKSLRIHNFPLLGRIHNFFSVAKETTFSSKAYGTRESKTTSIPGRLQLDMLQVMQRDFKLRSYSLNAVCSQFLGEQKEDVHYSIITDLQNGTADSRRRLAIYCLKDAYLPQRLMDKLMCFVNYTEMARVTGVPFNFLLARGQQIKVISQLFRKALQHDLVVPNIRVNGTDEQYEGATVIEPIKGYYDTPIATLDFSSLYPSIMQAHNLCYTTLLDSNTAELLKLKQDVDYSVTPNGDYFVKPHVRKGLLPIILADLLNARKKAKADLKKETDPFKKAVLDGRQLALKVSANSVYGFTGATNGRLPCLAISSSVTSYGRQMIEKTKDVVEKRYRIENGYSHDAVVIYGDTDSVMVKFGVKTLPEAMKLGEEAANYVSDQFPNPIKLEFEKVYFPYLLISKKRYAGLFWTRTDTYDKMDSKGIETVRRDNCPLVSYVIDTALRKMLIDQDVEGAQLFTKKVISDLLQNKIDMSQLVITKALSKTDYAAKMAHVELAERMRKRDAGSAPAIGDRVAYVIIKGAQGDQFYMRSEDPIYVLENNIPIDAKYYLENQLSKPLLRIFEPILGEKASSLLHGDHTRTISMAAPSVGGIMKFAVKVETCLGCKAPIKKGKTALCENCLNRSAELYQRQVAQVNDLEVRFARLWTQCQRCQGSMHQDVICTSRDCPIFYMRIAEHKKLQQSVDLLKRFDEMSW
notes: DNA polymerase delta catalytic subunit Pol3, S. pombe; prey plasmid named pACT-Pol3 in the results and pGAD2F-Pol3 in the methods; also called Gal4-Pol3; pACT-Pol3; source: yeast two-hybrid fusion, in S. cerevisiae CTY10-5d
[1]
  two-hybrid beta-galactosidase activity, % of wild-type Cdc1: 17%
[2]
  two-hybrid beta-galactosidase activity, % of wild-type Cdc1: 46%
[3]
  two-hybrid beta-galactosidase activity, % of wild-type Cdc1: 54%
[4]
  two-hybrid beta-galactosidase activity, % of wild-type Cdc1: < 1%
